Results taken from PMC1948075 (The EMBO Journal, 2007).
Ends that are not written are not given here.

Biological target: T1, GST-IgFLNa21 (amino acids 2236–2329) (human, UniProt P21333 2236-2329)
T1 sequence (looked up): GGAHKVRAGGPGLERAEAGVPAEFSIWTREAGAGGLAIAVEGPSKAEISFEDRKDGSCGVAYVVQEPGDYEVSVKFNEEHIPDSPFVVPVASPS
Assay: pull-down

Kd: 700 ± 100 nM
B1: recombinant His-tagged integrin β7 cytoplasmic tail model protein (domain or fragment, UniProt P26010 747-798, looked up)
chain: RLSVEIYDRREYSRFEKEQQQLNWKQDSNPLYKSAITTTINPRFQEADSPTL
modifications: also: His-tagged, tag place not given here
